Laboratory results from doi:10.1101/2022.10.21.513149, “Time-resolved cryo-EM using a combination of droplet microfluidics with on-demand jetting” (bioRxiv, 2022).

What was measured:
[1] = biological target: T1, GroEL (Escherichia coli MG1655, UniProt P0A6F5 1-548); experiment: cryo-EM structure; steady state continuous turnover reference, conventional plunger at around 20 s after the start of the reaction; GroEL (3.7 mg/ml) mixed with GroES (0.7 mg/ml), ATP (2 mM), CHAPS (0.1 %); 22 °C; fractions of complexes from 3D classification of particles; details: both partners purified
T1 construct: GroEL of Escherichia coli MG1655; synthetic construct based on the GroEL gene, in a pET-15b vector; also called GroEL-ATP; GroEL-(ADP); source: E. coli BL21, purified (ammonium sulfate cuts, Source Q15 anion exchange, Superose gel filtration); copies: 14
T1 sequence (P0A6F5 whole entry): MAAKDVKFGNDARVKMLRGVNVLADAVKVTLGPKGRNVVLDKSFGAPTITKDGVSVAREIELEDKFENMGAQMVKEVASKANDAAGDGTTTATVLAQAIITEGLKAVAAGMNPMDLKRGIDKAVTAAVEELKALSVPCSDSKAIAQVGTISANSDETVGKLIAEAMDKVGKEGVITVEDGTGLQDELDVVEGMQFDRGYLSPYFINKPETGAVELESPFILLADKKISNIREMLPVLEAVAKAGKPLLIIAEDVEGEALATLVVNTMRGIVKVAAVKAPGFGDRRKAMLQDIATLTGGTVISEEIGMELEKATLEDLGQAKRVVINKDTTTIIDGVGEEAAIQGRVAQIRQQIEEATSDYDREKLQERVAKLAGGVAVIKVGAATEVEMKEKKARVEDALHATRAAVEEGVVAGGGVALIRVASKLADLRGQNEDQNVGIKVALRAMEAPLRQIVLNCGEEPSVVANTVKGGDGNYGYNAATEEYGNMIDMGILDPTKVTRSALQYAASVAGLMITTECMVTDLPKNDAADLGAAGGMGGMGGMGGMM

[2] = biological target: the molecule itself; experiment: as above

stoichiometry N [1]: 2
B1: GroES (natural protein, Escherichia coli MG1655, UniProt P0A6F9 1-97, looked up)
chain: MNIRPLHDRVIVKRKEVETKSAGGIVLTGSAAAKSTRGEVLAVGNGRILENGEVKPLDVKVGDIVIFNDGYGVKSEKIDNEEVLIMSESDILAIVEA
notes: GroES of Escherichia coli MG1655; synthetic construct based on the GroES gene, in a pET-15b vector; source: E. coli BL21, purified (Source Q15 anion exchange, Superdex 200 gel filtration)
binding result [2]: binds
